Key:
[1] = target: SARS-CoV-2 spike receptor-binding domain (RBD) (SARS-CoV-2) (UniProt P0DTC2); assay: BLI
[2] = target: SARS-CoV-1 spike receptor-binding domain (RBD) (SARS-CoV-1); assay: BLI
[3] = target: SARS-CoV-2 spike receptor-binding domain (RBD) (SARS-CoV-2) (UniProt P0DTC2); assay: ELISA

Work on “CTC-445.2, recombinant (designed binder)” yielded a Kd [1] of 21 nM, a Kd [2] of 7100 nM and an IC50 [3] of 10.4 nM.

CTC-445.2d (designed binder) was tested, and the Kd [1] was 3.5 nM, the Kd [2] was 587 nM and the IC50 [3] was 0.7 nM.

CTC-445, recombinant (designed binder) gave a Kd [1] of 357 nM and an IC50 [3] of 1700 nM.
